US20130115170A1
Where two headings read alike, the source gives them in different places.

T1: cholera toxin B subunit (Vibrio cholerae), P01556
T1 chain: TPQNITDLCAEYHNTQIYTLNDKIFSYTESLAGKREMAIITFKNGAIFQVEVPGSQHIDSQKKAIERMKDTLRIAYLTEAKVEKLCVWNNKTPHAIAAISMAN


Columns and labels:
[1] = target: T1, cholera toxin B subunit (Vibrio …); assay: solid-phase ELISA, competition: peptide inhibits CTB binding to GM1
[2] = target: T1, cholera toxin B subunit (Vibrio …); assay: solid-phase ELISA, inhibition of CTB binding to GM1, peptide at its IC50 for GM1
[3] = target: T1, cholera toxin B subunit (Vibrio …); assay: solid-phase ELISA, inhibition of CTB binding to LOSGM1, peptide at 100 pmol/mL
[4] = target: T1, cholera toxin B subunit (Vibrio …)
[5] = target: T1, cholera toxin B subunit (Vibrio …); assay: solid-phase ELISA, inhibition of CTB binding to F-GM1, peptide at 100 pmol/mL
[6] = target: T1, cholera toxin B subunit (Vibrio …); assay: solid-phase ELISA, inhibition of CTB binding to Lipid A, peptide at 100 pmol/mL
[7] = target: T1, cholera toxin B subunit (Vibrio …); assay: solid-phase ELISA, inhibition of CTB binding to GD1b, peptide at 100 pmol/mL

Row | Binder | IC50 [1] | inhibition percent [2] | inhibition percent [3] | inhibition percent [4] | inhibition percent [5] | inhibition percent [6] | inhibition percent [7]
1 | FPAWFTKLYPRT (modifications not checked) [PGM1-4] | 77.4 nM | 50% |  |  |  |  | 
2 | VSWKTWFPNLAV (modifications not checked) [PGM1-1] | 38 nM | 50% |  |  |  |  | 
3 | QINTAKWWKTHF (modifications not checked) [PGM1-5] | 34.4 nM | 50% |  |  |  |  | 
4 | IPQVWRDWFKLP (modifications not checked) [PGM1-3] | 9.6 nM | 50% |  |  |  |  | 
5 | YSPFHKWFPSMH (modifications not checked) [PGM1-2] | 46.1 nM | 50% |  |  |  |  | 
6 | DASKALRSSGMP (modifications not checked) [PGM1-6] |  |  | -0% | -0% | -0% | -0% | -0%
